Test results: publication PMC3540084

Tests used:
[1] = molecular target: T1, recombinant human caspase-3 (human) (UniProt P42574)
T1 sequence: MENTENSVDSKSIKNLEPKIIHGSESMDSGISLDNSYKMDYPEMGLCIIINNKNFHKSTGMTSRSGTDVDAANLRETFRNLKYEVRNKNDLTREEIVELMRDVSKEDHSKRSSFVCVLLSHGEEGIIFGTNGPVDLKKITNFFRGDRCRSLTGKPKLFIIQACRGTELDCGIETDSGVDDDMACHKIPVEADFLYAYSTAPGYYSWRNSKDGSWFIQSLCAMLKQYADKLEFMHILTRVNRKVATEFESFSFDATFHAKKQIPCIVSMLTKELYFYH

[2] = molecular target: T2, recombinant human caspase-6 (human) (UniProt P55212)
T2 sequence: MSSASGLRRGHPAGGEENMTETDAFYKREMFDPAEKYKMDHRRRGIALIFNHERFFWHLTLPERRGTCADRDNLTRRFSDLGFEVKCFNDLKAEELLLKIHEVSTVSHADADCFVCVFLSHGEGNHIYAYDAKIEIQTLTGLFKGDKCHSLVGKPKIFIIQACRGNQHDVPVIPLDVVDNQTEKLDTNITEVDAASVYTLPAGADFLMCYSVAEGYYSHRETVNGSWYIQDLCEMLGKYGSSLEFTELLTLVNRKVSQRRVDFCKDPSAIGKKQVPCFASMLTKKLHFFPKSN

[3] = molecular target: T3, recombinant human caspase-7 (human) (UniProt P55210)
T3 sequence: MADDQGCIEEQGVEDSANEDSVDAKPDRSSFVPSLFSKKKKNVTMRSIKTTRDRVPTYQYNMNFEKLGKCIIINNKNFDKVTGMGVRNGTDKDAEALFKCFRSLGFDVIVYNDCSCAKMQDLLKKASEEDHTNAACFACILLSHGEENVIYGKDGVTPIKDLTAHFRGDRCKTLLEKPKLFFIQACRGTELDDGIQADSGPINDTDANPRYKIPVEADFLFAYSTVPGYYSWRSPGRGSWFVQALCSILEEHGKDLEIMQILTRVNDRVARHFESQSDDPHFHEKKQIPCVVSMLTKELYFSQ

[4] = molecular target: recombinant human caspase-9 (human) (UniProt P55211)
Sequence of UniProt P55211 (P55211 whole entry): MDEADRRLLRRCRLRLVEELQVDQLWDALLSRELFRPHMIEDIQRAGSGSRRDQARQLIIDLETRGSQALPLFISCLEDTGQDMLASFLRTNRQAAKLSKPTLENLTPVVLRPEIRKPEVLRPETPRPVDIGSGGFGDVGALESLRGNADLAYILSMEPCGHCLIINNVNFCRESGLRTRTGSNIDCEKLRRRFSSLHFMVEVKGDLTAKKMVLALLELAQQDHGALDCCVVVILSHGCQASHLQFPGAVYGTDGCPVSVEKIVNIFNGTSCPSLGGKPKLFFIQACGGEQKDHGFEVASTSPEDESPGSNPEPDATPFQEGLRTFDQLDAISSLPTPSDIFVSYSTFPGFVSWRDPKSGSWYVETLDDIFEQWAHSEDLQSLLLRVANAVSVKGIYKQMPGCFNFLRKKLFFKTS

For “recombinant human IL-1Ra (from UniProt P18510 26-177) (natural protein)”, the i 0,5 of inhibition of rh-caspase-3 activity (release of AMC from Ac-DEVD-AMC, substrate at Km concentration, 22°C) [1] was 2.5 µM, the i 0,5 of inhibition of rh-caspase-6 activity (release of AMC from Ac-DEVD-AMC, substrate at Km concentration, 22°C) [2] was 2.2 µM and the i 0,5 of inhibition of rh-caspase-7 activity (release of AMC from Ac-DEVD-AMC, substrate at Km concentration, 22°C) [3] was 1.3 µM. The i 0,5 of inhibition of rh-caspase-9 activity (release of AMC from Ac-LEHD-AMC, substrate at Km concentration, 22°C) [4] was 0.31 µM and the percent inhibition of rh-caspase-9 activity by 100 nM IL-1Ra [4] was 41%.
